{
  "source": "paper PMC4156074",
  "about": "“Inhibition of Plasma Kallikrein by a Highly Specific Active Site Blocking Antibody” (The Journal of Biological Chemistry, 2014)",
  "settings_in_all_cases": "both partners purified",
  "key": {"[1]": {"biological_target": "T1, Full-length human plasma kallikrein, activated form (human, UniProt P03952)", "T1 construct": "also called pKal; active pKal; source: bought: Enzyme Research Laboratories", "T1 sequence (P03952 20-390, chain 1 of 2)": "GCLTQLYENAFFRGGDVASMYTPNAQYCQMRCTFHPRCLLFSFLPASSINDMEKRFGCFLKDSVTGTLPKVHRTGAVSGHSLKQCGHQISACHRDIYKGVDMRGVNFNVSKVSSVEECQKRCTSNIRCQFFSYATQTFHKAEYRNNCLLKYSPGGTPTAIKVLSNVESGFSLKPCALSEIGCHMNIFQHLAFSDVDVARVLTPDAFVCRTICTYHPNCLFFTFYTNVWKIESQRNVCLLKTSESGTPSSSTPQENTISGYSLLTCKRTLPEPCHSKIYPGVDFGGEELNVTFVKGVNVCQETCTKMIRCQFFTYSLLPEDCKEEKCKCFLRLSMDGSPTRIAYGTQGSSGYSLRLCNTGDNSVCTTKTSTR", "T1 sequence (P03952 391-638, chain 2 of 2)": "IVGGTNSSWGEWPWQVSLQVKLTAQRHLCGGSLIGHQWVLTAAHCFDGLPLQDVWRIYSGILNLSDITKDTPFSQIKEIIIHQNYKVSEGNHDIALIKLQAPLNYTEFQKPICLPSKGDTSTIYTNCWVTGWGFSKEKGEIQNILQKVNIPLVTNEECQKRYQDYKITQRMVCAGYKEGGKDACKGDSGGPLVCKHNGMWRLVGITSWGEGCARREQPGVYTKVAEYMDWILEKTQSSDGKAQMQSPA", "test": "enzyme inhibition (steady state, tight-binding fit); purified Fab fragments on full-length pKal, potency studies like those of Fig. 2A; apparent"}, "pKal from rat plasma [2]": {"biological_target": "T2, pKal from rat plasma (Rattus norvegicus, UniProt P14272)", "T2 construct": "also called rat pKal; source: purified from rat plasma by Athens Research and Technology", "T2 sequence (P14272 20-638)": "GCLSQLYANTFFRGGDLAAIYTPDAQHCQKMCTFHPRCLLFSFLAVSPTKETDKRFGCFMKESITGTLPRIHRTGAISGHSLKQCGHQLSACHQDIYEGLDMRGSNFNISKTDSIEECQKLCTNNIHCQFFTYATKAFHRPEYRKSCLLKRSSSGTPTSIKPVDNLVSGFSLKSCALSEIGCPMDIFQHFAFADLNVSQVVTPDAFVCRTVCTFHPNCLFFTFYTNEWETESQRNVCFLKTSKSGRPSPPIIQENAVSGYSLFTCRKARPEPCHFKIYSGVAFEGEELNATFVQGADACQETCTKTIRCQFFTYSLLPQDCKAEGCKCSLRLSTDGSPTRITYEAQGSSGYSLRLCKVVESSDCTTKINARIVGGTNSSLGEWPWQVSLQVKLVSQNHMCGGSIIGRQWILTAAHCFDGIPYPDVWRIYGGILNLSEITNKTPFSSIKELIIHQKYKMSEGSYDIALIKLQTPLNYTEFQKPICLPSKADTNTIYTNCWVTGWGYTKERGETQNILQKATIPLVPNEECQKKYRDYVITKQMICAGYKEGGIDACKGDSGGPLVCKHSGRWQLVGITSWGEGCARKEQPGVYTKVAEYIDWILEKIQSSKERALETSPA", "test": "enzyme inhibition (steady state, tight-binding fit); purified Fab fragments on full-length pKal, potency studies like those of Fig. 2A; apparent"}, "pKal from rabbit plasma": {"biological_target": "T3, pKal from rabbit plasma (Oryctolagus cuniculus, UniProt G1T127)", "T3 construct": "also called rabbit pKal; source: purified from rabbit plasma by Athens Research and Technology", "test": "enzyme inhibition (steady state, tight-binding fit); DX-2930 on purified pKal of mouse, rat, rabbit and cynomolgus monkey; apparent; data not shown"}, "pKal from rat plasma [3]": {"biological_target": "T2, pKal from rat plasma", "test": "enzyme inhibition (steady state, tight-binding fit); DX-2930 on purified pKal of mouse, rat, rabbit and cynomolgus monkey; apparent; data not shown"}, "purified pKal from mouse": {"biological_target": "T4, purified pKal from mouse (Mus musculus, UniProt P26262)", "T4 construct": "also called mouse pKal", "T4 sequence (P26262 20-638)": "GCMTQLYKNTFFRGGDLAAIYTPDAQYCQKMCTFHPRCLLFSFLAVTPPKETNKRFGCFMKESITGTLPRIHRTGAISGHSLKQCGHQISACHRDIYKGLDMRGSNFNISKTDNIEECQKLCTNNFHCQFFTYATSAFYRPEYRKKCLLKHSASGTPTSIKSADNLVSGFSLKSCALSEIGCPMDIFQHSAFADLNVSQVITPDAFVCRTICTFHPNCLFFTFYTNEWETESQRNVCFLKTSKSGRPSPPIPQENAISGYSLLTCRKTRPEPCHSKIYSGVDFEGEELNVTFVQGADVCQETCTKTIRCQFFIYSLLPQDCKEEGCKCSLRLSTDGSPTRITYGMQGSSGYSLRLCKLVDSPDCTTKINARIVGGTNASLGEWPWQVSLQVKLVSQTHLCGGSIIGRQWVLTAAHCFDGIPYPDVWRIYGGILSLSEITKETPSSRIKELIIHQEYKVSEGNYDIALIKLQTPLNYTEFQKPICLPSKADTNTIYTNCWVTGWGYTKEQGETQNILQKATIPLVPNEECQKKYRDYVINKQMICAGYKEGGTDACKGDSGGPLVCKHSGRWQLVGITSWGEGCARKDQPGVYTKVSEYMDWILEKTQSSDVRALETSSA", "test": "enzyme inhibition (steady state, tight-binding fit); DX-2930 on purified pKal of mouse, rat, rabbit and cynomolgus monkey; apparent; data not shown"}, "[4]": {"biological_target": "T5, Full-length human plasma prekallikrein (Homo sapiens, UniProt P03952)", "T5 construct": "human plasma prekallikrein, single-chain zymogen; also called zymogen; source: bought: Enzyme Research Laboratories", "test": "SPR; BIAcore 3000, 25 °C, HBS-P (10 mM HEPES pH 7.4, 150 mM NaCl, 0.005% P20); DX-2930 captured on goat anti-human Fc IgG on CM5; 500 nM prekallikrein, pKal or pKal-AEBSF injected 5 min at 20 ul/min, 5 min dissociation"}, "[5]": {"biological_target": "T6, pKal complexed with 2-chain HMWK (Homo sapiens, UniProt P03952;P01042)", "T6 construct": "heavy chain of 2-chain HMWK, as in m6; light chain of 2-chain HMWK, as in m6; also called pKal·HMWK complex; source: bought proteins (Enzyme Research Laboratories); pKal preincubated with 600 nM (or 4.7 uM) HMWK; copies: + + +", "T6 sequence (P03952 20-390, looked up, one chain of several)": "as the sequence (P03952 20-390, chain 1 of 2) above", "test": "enzyme inhibition (steady state, tight-binding fit); DX-2930 IgG (up to 10 nM, 1.5-fold dilutions) incubated 1 h at 30 °C with 1 nM pKal, free or preincubated with 600 nM 2-chain HMWK, in 20 mM Tris-HCl pH 7.5, 150 mM NaCl, 1 mM EDTA, 0.1% PEG-8000, 0.1% Triton X-100; substrate H-Pro-Phe-Arg-AMC at 10, 50 or 100 uM; Ki from Ki app by Equation 2, averaged"}, "[6]": {"biological_target": "T7, Full-length human plasma kallikrein, activated form (human, UniProt P03952 20-390; P03952 391-638)", "T7 construct": "also called pKal; active pKal; source: bought: Enzyme Research Laboratories", "T7 sequence (P03952 20-390, chain 1 of 2)": "as above", "T7 sequence (P03952 391-638, chain 2 of 2)": "as the sequence (P03952 391-638, chain 2 of 2) above", "test": "SPR; BIAcore 3000, 25 °C, HBS-P; 2-chain HMWK amine-coupled on CM5 (~2000 RU); varying pKal flowed 5 min at 20 ul/min; equilibrium RU fit to Equation 3"}},
  "data": [
    {"binder": "Fab M0201-H06 (Fab, V domains shown, M0162-A04 with I103V alone in HV-CDR3; against the heavy chain of m2 it keeps T101 and A108; as the light chain of m2, germ line optimisation aside; source: E. coli, secreted, purified (protein A-Sepharose)) VH: EVQLLESGGGLVQPGGSLRLSCAASGFTFSHYIMMWVRQAPGKGLEWVSGIYSSGGITVYADSVKGRFTISRDNSKNTLYLQMNSLRAEDTAVYYCAYRRTGVPRRDAFDIWGQGTMVTVSS VL: DIQMTQSPSTLSASVGDRVTITCRASQSISSWLAWYQQKPGKAPNLLIYKASTLESGVPSRFSGSGSGTEFTLTISSLQPDDFATYYCQQYNTYWTFGQGTKVEIK", "values": [
      {"measurement": "Ki", "setting": "[1]", "value": 0.56, "unit": "nM"}
    ]},
    {"binder": "Fab M0162-A04 (lead Fab, parent of the affinity maturation) (Fab, V domains shown, as the heavy chain of m2 but with the parental HV-CDR3 residues T101, I103, A108; as the light chain of m2, germ line optimisation aside; source: E. coli, secreted, purified (protein A-Sepharose)) VH: EVQLLESGGGLVQPGGSLRLSCAASGFTFSHYIMMWVRQAPGKGLEWVSGIYSSGGITVYADSVKGRFTISRDNSKNTLYLQMNSLRAEDTAVYYCAYRRTGIPRRDAFDIWGQGTMVTVSS VL: DIQMTQSPSTLSASVGDRVTITCRASQSISSWLAWYQQKPGKAPNLLIYKASTLESGVPSRFSGSGSGTEFTLTISSLQPDDFATYYCQQYNTYWTFGQGTKVEIK", "values": [
      {"measurement": "Ki", "setting": "[1]", "value": "~5", "unit": "nM"},
      {"measurement": "Ki", "setting": "pKal from rat plasma [2]", "value": "~5", "unit": "nM"}
    ]},
    {"binder": "DX-2930, fully human IgG1 monoclonal antibody (antibody, V domains shown, the Fab portion of the heavy chain is in the deposited structures (as the heavy chain of m2); the rest is the human IgG1 constant region (f-allotype); as the light chain of m2 in the deposited structures; IgG1 (f-allotype); Biotinylated for the ELISA on HUVEC; also called germ line-optimized M0199-A08; copies: 2 + 2) VH: EVQLLESGGGLVQPGGSLRLSCAASGFTFSHYIMMWVRQAPGKGLEWVSGIYSSGGITVYADSVKGRFTISRDNSKNTLYLQMNSLRAEDTAVYYCAYRRIGVPRRDEFDIWGQGTMVTVSS VL: DIQMTQSPSTLSASVGDRVTITCRASQSISSWLAWYQQKPGKAPKLLIYKASTLESGVPSRFSGSGSGTEFTLTISSLQPDDFATYYCQQYNTYWTFGQGTKVEIK", "values": [
      {"measurement": "Ki", "setting": "pKal from rabbit plasma", "value": 14.2, "unit": "nM"},
      {"measurement": "Ki", "setting": "pKal from rat plasma [3]", "value": 0.17, "unit": "nM"},
      {"measurement": "Ki", "setting": "purified pKal from mouse", "value": 0.17, "unit": "nM"},
      {"measurement": "binding result", "setting": "[4]", "value": "no binding (tested: 500 nM)"},
      {"measurement": "Ki", "setting": "[5]", "value": "0.115 ± 0.003", "unit": "nM"}
    ]},
    {"binder": "isolate M0199-A08 (Fab, V domains shown, M0162-A04 with T101I, I103V and A108E in HV-CDR3; as the heavy chain of m2 before germ line optimisation; as the light chain of m2 before germ line optimisation; also called M0199-A08 variant; source: E. coli, secreted, purified (protein A-Sepharose)) VH: EVQLLESGGGLVQPGGSLRLSCAASGFTFSHYIMMWVRQAPGKGLEWVSGIYSSGGITVYADSVKGRFTISRDNSKNTLYLQMNSLRAEDTAVYYCAYRRIGVPRRDEFDIWGQGTMVTVSS VL: DIQMTQSPSTLSASVGDRVTITCRASQSISSWLAWYQQKPGKAPNLLIYKASTLESGVPSRFSGSGSGTEFTLTISSLQPDDFATYYCQQYNTYWTFGQGTKVEIK", "values": [
      {"measurement": "Ki", "setting": "[1]", "value": 0.05, "unit": "nM"}
    ]},
    {"binder": "2-chain high molecular weight kininogen (treated with pKal to excise bradykinin) (natural protein, human, heavy chain of human high molecular weight kininogen after excision of bradykinin; light chain of human high molecular weight kininogen after excision of bradykinin; also called 2-chain HMWK; 2-chain kininogen; source: bought: Enzyme Research Laboratories) chain 1: QESQSEEIDCNDKDLFKAVDAALKKYNSQNQSNNQFVLYRITEATKTVGSDTFYSFKYEIKEGDCPVQSGKTWQDCEYKDAAKAATGECTATVGKRSSTKFSVATQTCQITPAEGPVVTAQYDCLGCVHPISTQSPDLEPILRHGIQYFNNNTQHSSLFMLNEVKRAQRQVVAGLNFRITYSIVQTNCSKENFLFLTPDCKSLWNGDTGECTDNAYIDIQLRIASFSQNCDIYPGKDFVQPPTKICVGCPRDIPTNSPELEETLTHTITKLNAENNATFYFKIDNVKKARVQVVAGKKYFIDFVARETTCSKESNEELTESCETKKLGQSLDCNAEVYVVPWEKKIYPTVNCQPLGMISLMK chain 2: SSRIGEIKEETTVSPPHTSMAPAQDEERDSGKEQGHTRRHDWGHEKQRKHNLGHGHKHERDQGHGHQRGHGLGHGHEQQHGLGHGHKFKLDDDLEHQGGHVLDHGHKHKHGHGHGKHKNKGKKNGKHNGWKTEHLASSSEDSTTPSAQTQEKTEGPTPIPSLAKPGVTVTFSDFQDSDLIATMMPPISPAPIQSDDDWIPDIQIDPNGLSFNPISDFPDTTSPKCPGRPWKSVSEINPTTQMKESYYFDLTDGLS", "values": [
      {"measurement": "Kd", "setting": "[6]", "value": 72, "unit": "nM"}
    ]}
  ]
}
